{"source": "paper PMC4253958", "key": {"[1]": {"molecular_target": "APP-D8, N-terminally myc-tagged APP695 (human) (UniProt P05067)"}, "[2]": {"molecular_target": "APPΔF616, N-terminally myc-tagged APP695 (human) (UniProt P05067)"}, "[3]": {"molecular_target": "APPΔS622, N-terminally myc-tagged APP695 (human) (UniProt P05067)"}}}
{"substance": "APP-D8, N-terminally myc-tagged APP695 (from UniProt P05067-4 18-695) (natural protein)", "values": [{"measurement": "S2 cell aggregation assay: clustered transfected cells, compared to APPwt expressing cells", "setting": "[1]", "value": 2, "unit": "fold"}]}
{"substance": "APPΔF616, N-terminally myc-tagged APP695 (from UniProt P05067-4 18-695) (natural protein)", "values": [{"measurement": "S2 cell aggregation assay: clustered transfected cells, compared to APPwt expressing cells", "setting": "[2]", "value": "> 2", "unit": "fold"}]}
{"substance": "APPΔS622, N-terminally myc-tagged APP695 (from UniProt P05067-4 18-695) (natural protein)", "values": [{"measurement": "S2 cell aggregation assay: clustered transfected cells, compared to APPwt expressing cells", "setting": "[3]", "value": "> 2", "unit": "fold"}]}
